Assay results: the domain aggregation screens of Martell et al. (2025)

Test: soluble fraction after stress (log2 fold change); higher = more stays soluble; pooled small domains, quantitative proteomics
Details: stress: 75 degC
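Further: 20 min heating vs room temperature control held 20 min.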

Sequence | soluble fraction (log2)
HMFPELSPEEQLIVEVLSKTNDLQVNLISVKTNIDISRLTSLLFTLEMKGVIKTFAGGMYHLL | -1.19
HMFPSLSPEEQAVVDVLQRNNDLQINMLSVQSGLTISRLTALLFQLEMKGVIKPLAGGMYHLL | -0.711
HMFPTLSPEEQRIVDQLAKENDLQANVIALRTALTIPQISALLFSLEMKGMVRLYAGGTYHLI | -4.6
HMFQPEQISKLNELETLVLDFIIKSPDKVQKATIRSLATQLHVSTTTIVRMSTKLGFNGWSELKFFLKNQS | -1.93
HMFRDFSETLLRKLQAAGGFLPFTDKTDAEAIAEHFQVSKKTFKRAVGTLYKQRRILIDDEGITLIG | -1.59
HMFRPDYYEILQVDRHASPEVITAAYRQLLSIYNSEQDGNKQMIKLIQEAYGVLGDSQDRWLYDSWLDNN | -1.34
HMFRSNAERAAHLASALPRAEAELAALQARGAATSENIYLRSSYFDALRYTEELRAAKRAQDALQGA | 0.195
HMFSAASSQISSYVRSVVDKAQTYEQAYEILAKNPLGFKLDALEDELFRIIANAEILGADDDE | -0.976
HMFSNATISGLKAGALVRVYNISGVAVSTLTADAEGKVSVDLNNLPKGVYILSTPSKSFKVLN | -2.65
HMFSWRQHLDHFGFSDEIKKRLADAVFLNDDWNEIDRGVLTKEELLARFIENDPGIEKEIYMVMENIN | -0.835
HMFYPIAHTLTKLNIRSGPGEQYQKLATFENNHDLVVLTQQNEWVQVRGKSDEQVIIGWVHSSFLSPT | -2.8
HMFYQLTENQRRILSSLEQNPRVSAAHLAEEIGISSRKVENNLKKLKEIGLLQRHGSPRKGYWSINQGW | -0.938
HMGAAAQLLHAVVLRVPAEDTMKFVSETPELRRYLGAPLGPTAALVRPGQEQELAAALQAHGILVEFDE | -0.45
HMGAAITEAEAKQIALDHAGVSESETERMRVKLGRDDGVQEYEVNFYVGNREYDYDINAATGEIRSHDSE | 0.107
HMGADPTTWPEIDAFVGRVAVTATGLFPSGQVEIDGRRFEARLAFGVAEPGARVVVRRRTDFGLLVEKETR | -2.38
HMGADRLVGMTAIVTATIDPNDTDRKGRVQVEGEVWSALSDGRLIITEGSKVRITEMHGTRVRVEAI | -0.685
HMGAEWTEMRVWTSTSGSKVTAEASSLTNGQVTLETKSGKRITLSIRKLVEADQKFLEAHFSK | -1.33
HMGAGLLEPEPLKIEIQETQERLQKLQKALERDTETADSKERIKRAIEAHKARISQLQGLIE | 0.219
HMGAKVFTVPNLIGKYAIEAGIILKKEGLSEGEVKEENSDKYAAGQIIDQYPAADSPAKENDKINYVVSIG | -0.066
HMGANSAYMAMRDRIQQRLLAELSPGVTRSDTAEVRRVVERIFNETTAELGLPLSRLERNDIFDLVLADIL | -1.85
HMGAPLAVGDSVRVVVSGPRAFVYTAPNGALSGAVRNGAAFTVLELSPDNTWARIGSGEWIKVEFLATG | -0.919
HMGATYSQFLDQVDGGNVQKVTFSGDMRSGTNQISYTTRSGQSATITAPMDRDLINILRAKNVEIVQEEP | 0.232
HMGAWQQTGFFRNRENAESLAEVLRQRGFSPVVREDTRPSGTVYYAVLVPDDGTTAARLKDAGIDSYPV | 0.121
HMGDDYFTILGIERDATTDEIRSAYRRLSKKIHPDAQGSSALFRQVQEAYETLIDPSSRARYVAELNASQG | 0.00161
HMGDERDRLLLARGKRIYQELIGSDRENVAAALREFEAVLAVNNRRAIHVMRQRLAELFGVYEEFLNEEFL | -4.51
HMGDEVAVTEILVKVGDTVEADQSLLTVEGDKASMEVPAPFAGVVKAIQVQLGDKVVTGSPIMLFEV | 0.073
HMGDFNYVMPDFRGLEAHDVSSFLNRNGFLLRPTEHEVSFTQRPGLILMHYPEPGYPFSRSSPITLVVS | -0.947
HMGDGMEVWVNGSPVNLTGKDSFIFVDIFDFIDFDLTASKGRLIVIKVNGEYAEYTRPLHNGDTIEIYWEE | 0.0346

Sequence | soluble fraction (log2)
HMGDGRVGVITASIAYEYAKEVFPEGTSFLKLGLTFPLPMDLIRDFASKVEKLYVIEELEPL | -0.122
HMGDHYTALGLSIDATPEEIRSAYFLAARRSHPDANPDAQTTEWFLRVQEAYDILSNPRRRAEYDASLP | -0.6
HMGDKRPIAVGDYVKLEGQDTPGQVLSISGKNATVGFGMLKTTVKLDRLRHTMAKPQTGASAGVR | -0.293
HMGDKVTIPNLIDMKLTDAQNQYKPQGFSIVKNGERESDKEAGTILEQDKAAGTEISGKDIRIFVVVSSGS | 0.0688
HMGDLAAAGNHTLEVMGFPQHPDESYRHFVGNGIPKLIERMLPAGHDKETEQKAYDIFMEYYSAHK | 0.609
HMGDPMAIMQLSSNTTPEYWEAYQKYHIQEYEQSNFIRYVNGISVLDDDFVDKVLITIDQHGRIFSELKS | -3.21
HMGDSEMPVSEVVRLAKLDQISSIEISGTKLTIITNNLETYTSRIEENSTIIEILQRAGVDIGGLEIYPHG | -1.53
HMGDVSGFLRGVLADGPVPAKTVFSEASGAGYSRDQIQRAARKIGVERRKTGMAGGWVWELEP | -0.148
HMGEAYVVPNVKNKTLGEAQLALHNQKLEGLVVDSSYVKGLPDGMILDQNPAGGARVKEGRTIYLTITTS | -0.0978
HMGEDFPYVAYATDSVRLRSKPSSSGDILAVIRQGDAVLITGSDGNYKIVEYEGRKGYVISAFLSQTP | -1.15
HMGEDLTIDQLAAEVDMTVRNIRAHQARGLLPPPTIKGRIGYYGPLHRRRLQQIRAMQEEGLNLAAIAKVV | -0.889
HMGEDPYQMLGLTRQASDEEVRLAWRKLMRENHPDSLASRGVPQEFVKRATEQVAQINAAWDRIKRERG | -0.25
HMGEELIEIQNLRNKERREAEAILKNLDLVPVIQEQFDDTVPINRVITTDPGPDSTVKKGTTVMIYVSKGP | 0.415
HMGEENLKYPLLTDGSVKTTVLEAIDKDEKWLREELAKQGYDDLSKLFLVDYLGGQLVVTPY | 0.144
HMGEESIAELISNPKLSDAKRTVILDLLSRGLTVDQIKPYIQSDDPYTAEQLQFELYKLFFTQI | -0.578
HMGEGRVRLAQEAANRFMTAMAGDRPGFEEAGRALFAGDRARFHAETEGWPEDIRDHARRLAEPALQ | 0.144
HMGEIILVPDVKAQGVSDARYTLNQAGLDAVIADSSYNRNSPPGAVLEQMPAPGSKVKSGHAIYLIINTT | 0.138
HMGELTSILVATKQIEPGETLSSSNTQVKSWISDLIPEGAITNPESVMGRTVSSVIGVGMPVVSLHLR | 0.462
HMGELVIPPLRERTVVDAVAEAERLGFVVQVEPVASSLPEGRVLGQSPEPGTRARKSQVVVLQVSRG | -0.614
HMGEPLTVVAAAGGDRLDRWLAGQLAGRSRAEIQRWIEAGQVTLAGRSLKASYRLSAGDAIDVAIPPPE | -0.366
HMGEPVEIEEPITVRSLSEALGLKSSAIISHLMRQGVFATINQNLDKETAELIAAEYGIELRIK | -0.0834
HMGETDDDFRELEEFVEKTKFDKLGTFMYSKEEGTPAARLPEQIHGNTKKSRYNKIMSIQQKVSNEN | 0.253
HMGETPEILRDWEAAQNAVNDMLSKYAPGGYMGKIIYPLLTPLKERLEAGERTPDLYNAIVEAT | 0.119
HMGETYTIPDVRGYTLEDAMELPEIKENGFTIIEGRQIVDADVPVGQIISQTPEAESIAKSNVKEITVNIS | 0.239
HMGEVPVETKDGIKVHVHTVDKSQTAYGISRLYNITLNELYESNPEAKLELSIGQKLYFPVK | -0.199
HMGEVVRAPMPGNVLKMEVAQGQEVEEGDLLLVLEAMKMENDIVAPKGGIVIQLVVDKGMVVETDDPLVVI | -0.339
HMGEWNSVFSVPSSVVDKHLKTASSVYVKVLLVILRNAGNRISDQQISEQLSVPVDEVQEAIRYWNAAGIF | -2.76
